Reference: article PMC8420505 (2021)

Biological target: Spike (SARS-CoV-2, UniProt P0DTC2)
Assay: SPR

B1: CD209c (protein)
chain: MRMHTRLQFLKRVSNVAYSHGQEQAKKEKVYKEMTQLKSQINRLCRPCPWDWTVFQGNCYFFSKFQQNWNDSVNACRKLDAQLVVIKSDDEQSFLQQTSKEKGYAWMGLSDLKHEGRWHWVDGSHLLFSFMKYWNKGEPNNEWEEDCAEFRGDGWNDAPCTIKKYWICKKSAMSCTEK
Binder B1 has a Kd of 1 µM.

B2: Clec4g (protein)
chain: MNTGEYNKLGSAIEEVSRGQLGRWECYKQRLFFLVLALLVATVLWALILSTLLSSASSKLRVLLSHQDLLRTNASEQKMTLSSLKDDIGACRNCCSVTKAQLQTTLAEFKDIQAKLMEQESILKELQERVTQDLAKASRDRENIRSELFQALEAVKRQNSSCEQCPPSWLPFQGSCYYFSETQATWDTAQSYCGGQGAHLVIVRGLNEQGFLSQHTRGRGYWLGLRAVRHLNKIQGYRWVDGASLNFSHWNSGEPNDSRGHEDCIMMLHSGLWNDAPCTNERDGWICEKRSSCY
With B2 the Kd was 1.6 µM.
